Results on 2 molecules are retold here after article PMC6478338, “Peptide barcoding for establishment of new types of genotype–phenotype linkages” (PLoS ONE, 2019).

For the experiment, the target named is T1, Recombinant human sCD4 CF (Homo sapiens, UniProt P01730).
T1 construct: CD4, human, soluble recombinant form (sCD4, carrier-free); it is probably the extracellular domain of CD4 (surmised); also called recombinant CD4; source: bought: R&D Systems
Put plainly: SPR; Biacore T-200; sCD4 (2486.9 RU) or GFP (1189.8 RU) immobilised on CM5 chip; nanobodies flowed in HBS-EP (0.01 M HEPES pH 7.4, 0.15 M NaCl, 3 mM EDTA, 0.005% P20): anti-CD4 0.2-1.0 uM, anti-GFP 0.5-50 nM; 30 uL/min, contact 120 s, dissociation 120 s. The note with it: both partners purified. (In general: Surface plasmon resonance follows binding to a sensor surface in real time, without labels.)

B1: Anti-CD4-FLAG nanobody (VHH)
VHH: EVQLVESGGGSVQPGGSLTLSCGTSGRTFNVMGWFRQAPGKEREFVAAVRWSSTGIYYTQYADSVKSRFTISRDNAKNTVYLEMNSLKPEDTAVYYCAADTYNSNPARWDGYDFRGQGTQVTVSS
notes: also called anti-CD4 nanobody; source: Pichia pastoris GS115, secreted; culture supernatant filtered, concentrated and buffer-replaced with PBS
In general, Kd refers to a measure of binding affinity in units of concentration. A word on the koff: it is the rate constant with which the complex falls apart. In general, kon refers to a measure of how fast the partners come together. Regarding B1, the Kd was determined as 42 nM, the koff was 0.0054 s⁻¹ and the kon was 68000 M⁻¹ s⁻¹.

B2: Anti-CD4-FLAG-Barcode 1 nanobody (VHH)
VHH: EVQLVESGGGSVQPGGSLTLSCGTSGRTFNVMGWFRQAPGKEREFVAAVRWSSTGIYYTQYADSVKSRFTISRDNAKNTVYLEMNSLKPEDTAVYYCAADTYNSNPARWDGYDFRGQGTQVTVSS
notes: also called peptide-barcoded anti-CD4 nanobody; source: Pichia pastoris GS115, secreted; culture supernatant filtered, concentrated and buffer-replaced with PBS; purified with anti-FLAG gels (immunostaining)
B2: the Kd stood at 52 nM, the koff amounted to 0.004 s⁻¹ and the kon was 77000 M⁻¹ s⁻¹.
